# T1: protocadherin-42 (human, UniProt Q08174 58-1060)
# T1 construct: Full length human cDNA expressed in mouse L cells (pRC/RSV-pc42); tested on the transfected cells or in their extracts; also called pc42; human pc42
# T1 sequence: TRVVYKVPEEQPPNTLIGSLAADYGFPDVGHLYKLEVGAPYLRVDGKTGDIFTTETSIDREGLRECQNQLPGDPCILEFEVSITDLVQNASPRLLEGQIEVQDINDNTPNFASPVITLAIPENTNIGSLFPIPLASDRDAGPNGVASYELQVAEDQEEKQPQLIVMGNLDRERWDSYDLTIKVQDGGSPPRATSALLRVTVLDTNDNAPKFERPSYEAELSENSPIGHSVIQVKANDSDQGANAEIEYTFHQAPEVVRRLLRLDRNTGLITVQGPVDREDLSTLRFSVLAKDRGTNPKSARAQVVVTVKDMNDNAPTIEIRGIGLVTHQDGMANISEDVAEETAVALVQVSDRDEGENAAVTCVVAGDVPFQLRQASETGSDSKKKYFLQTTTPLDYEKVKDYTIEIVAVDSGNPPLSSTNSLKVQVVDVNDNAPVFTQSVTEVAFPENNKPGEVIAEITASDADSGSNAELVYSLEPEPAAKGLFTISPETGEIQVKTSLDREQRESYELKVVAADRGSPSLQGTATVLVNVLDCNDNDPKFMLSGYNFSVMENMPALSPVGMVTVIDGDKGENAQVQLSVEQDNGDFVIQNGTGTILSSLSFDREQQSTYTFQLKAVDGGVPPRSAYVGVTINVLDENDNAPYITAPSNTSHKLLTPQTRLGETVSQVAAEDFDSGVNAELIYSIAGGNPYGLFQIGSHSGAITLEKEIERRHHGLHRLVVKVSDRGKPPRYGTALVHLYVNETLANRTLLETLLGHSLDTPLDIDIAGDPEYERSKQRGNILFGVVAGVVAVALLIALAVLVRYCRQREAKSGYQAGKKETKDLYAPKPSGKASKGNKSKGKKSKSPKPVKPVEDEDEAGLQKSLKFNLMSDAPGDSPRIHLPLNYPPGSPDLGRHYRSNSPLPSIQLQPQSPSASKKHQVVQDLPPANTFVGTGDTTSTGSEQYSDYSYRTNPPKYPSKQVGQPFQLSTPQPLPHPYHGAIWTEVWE
# Target: T1, protocadherin-42
# Test: mixed cell aggregation assay, DiO-labelled pc43 transfectants with unlabelled pc42 transfectants
# Description: The cell aggregation properties of the transfected L cells expressing protocadherin proteins were examined. Transfected L cells were cultured in Dulbecco's Modified Eagles Medium (DMEM) (Gibco, Grand Island, N.Y.) supplemented with 10% fetal bovine serum at 37° C. in 5% CO₂. Cells grown near confluence were treated with 0.01% trypsin in the presence of 1 mM EGTA for 25 minutes on a rotary shaker at 37° C. and collected by centrifugation. The cells were washed three times with Ca²⁺ free HEPES-buffered saline (HBS) after adding soybean trypsin inhibitor, and were resuspended in HBS containing 1% BSA. The cell aggregation assay [Urushihara et al., Dev. Biol., 70: 206-216 (1979)] was performed by incubating the resuspended cells in a 1:1 mixture of DMEM and HBS containing 1% BSA, 2 mM CaCl₂ and 20 μg/ml of deoxyribonucelease on a rotary shaker at 37° C. for 30 minutes to 6 hours.
# This is in contrast to the cell aggregation that occurs with classic cadherins in similar experiments (Nagafuchi et al., supra, and Hatta et al., supra). […] Similar results were obtained when single cell suspensions of transfected cells were prepared by trypsin treatment in the presence of Ca²⁺. No re-aggregation was observed under the same conditions when untransfected L cells or L cells transfected with pRC/RSV vector alone were tested.
binder,measurement,value
"protocadherin-43 (receptor, Full length human cDNA expressed in mouse L cells (pRC/RSV-pc43); tested on the transfected cells or in their extracts; also endogenous pc43 in human tissue sections; also called pc43; human pc43) VIHYEIPEEREKGFAVGNVVANLGLDLGSLSARRFPVVSGASRRFFEVNRETGEMFVNDRLDREELCGTLPSCTVTLELVVENPLELFSVEVVIQDINDNNPAFPTQEMKLEISEAVAPGTRFPLESAHDPDLGSNSLQTYELSRNEYFALRVQTREDSTKYAELVLERALDREREPSLQLVLTALDGGTPALSASLPIHIKVLDANDNAPVFNQSLYRARVPGGCTSGTRVVQVLATDLDEGPNGEIIYSFGSHNRAGVRQLFALDLVTGMLTIKGRLDFEDTKLHEIYIQAKDKGANPEGAHCKVLVEVVDVNDNAPEITVTSVYSPVPEDASGTVIALLSVTDLDAGENGLVTCEVPPGLPFSLTSSLKNYFTLKTSADLDRETVPEYNLSITARDAGTPSLSALTIVRVQVSDINDNPPQSSQSSYDVYIEENNLPGAPILNLSVWDPDAPQNARLSFFLLEQGAETGLVGRYFTINRDNGIVSSLVPLDYEDRREFELTAHISDGGTPVLATNISVNIFVTDRNDNAPQVLYPRPGGSSVEMLPRGTSAGHLVSRVVGWDADAGHNAWLSYSLFGSPNQSLFAIGLHTGQISTARPVQDTDSPRQTLTVLIKDNGEPSLSTTATLTVSVTEDSPEARAEFPSGSAPREQKKNLTFYLLLSLILVSVGFVVTVFGVIIFKVYKWKQSRDLYRAPVSSLYRTPGPSLHADAVRGGLMSPHLYHQVYLTTDSRRSDPLLKKPGAASPLASRQNTLRSCDPVFYRQVLGAESAPPGQQAPPNTDWRFSQAQRPGTSGSQNGDDTGTWPNNQFDTEMLQAMILASASEAADGSSTLGGGAGTMGLSARYGPQFTLQHVPDYRQNVYIPGSNAH",binding result,no binding

# From patent US20060024291A1 (DOHENY EYE INSTITUTE, published 2006)
